Results taken from paper PMC9605988, “Juxtaposition of Bub1 and Cdc20 on phosphorylated Mad1 during catalytic mitotic checkpoint complex assembly” (Nature Communications, 2022).
Entries after “also recorded” stand apart in the source; their conditions may differ.

Legend:
[1] = test system: AF488-Bub1CD1:Mad1CTD complex (unphosphorylated); assay: Fluorescence anisotropy: Cdc20N titrated into preformed AF488-Bub1CD1:Mad1CTD complex; type: binding, human
Method: (§1) All reactions were completed in a buffer of 25 mM HEPES pH 7.75, 1 mM TCEP, 100 mM NaCl, 0.05% (v/v) Tween-20. […] Measurements were performed with a PheraStar plate reader FSX plate reader (BMG Labtech) using an optic module for λex = 485 nm, λem = 520 nm. Reactions were carried out in a total volume of 40 μl at 25 °C in a black, flat-bottom, non-binding surface 384-well plate (Corning). All experiments were performed as technical triplicates and data were analysed in PRISM 9.3.1 (GraphPad Software).

[2] = test system: AF488-Bub1CD1:pMad1CTD complex; assay: Fluorescence anisotropy: Cdc20N titrated into preformed AF488-Bub1CD1:pMad1CTD complex; type: binding, human; conditions: preformed AF488-Bub1CD1:pMad1CTD
[3] = molecular target: T1, Mad1CTD (unphosphorylated) (Homo sapiens, UniProt Q9Y6D9); assay: SEC-MALS, Cdc20N with unphosphorylated Mad1CTD; type: binding; conditions: 1:1.2 ratio Mad1CTD dimer to Cdc20N
T1 construct: the C-terminal domain of Mad1 (residue 597–718); made in house
T1 sequence (Q9Y6D9 597-718): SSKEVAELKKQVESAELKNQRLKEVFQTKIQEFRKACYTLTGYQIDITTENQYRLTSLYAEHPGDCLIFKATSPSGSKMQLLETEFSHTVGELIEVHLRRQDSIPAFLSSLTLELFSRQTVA
Method: (§2) Size-exclusion chromatography coupled with multi-angle static light scattering (SEC-MALS), was performed using an Agilent 1200 series LC system with an online Dawn Helios ii system (Wyatt) equipped with a QELS + module (Wyatt) and an Optilab rEX differential refractive index detector (Wyatt). About 100 μl purified protein at ~3.0 mg/ml was auto-injected onto Superdex 75 or a Superdex 200 Increase 10/300 GL column (GE Healthcare) and run at 0.5 ml/min. The molecular masses were analysed with ASTRA 7.3.0.11 (Wyatt). Data were plotted using Prism 8.4.3 (GraphPad Software, Inc). Purified Cdc20^N and Cdc20^N mutants were incubated with Mad1^CTD wild-type or mutants at a 1:1.2 ratio of Mad1^CTD dimer to Cdc20^N.

[4] = test system: pMad1CTD (Mad1CTD pT716); assay: SEC-MALS, Cdc20N with pMad1CTD; type: binding, human
Method: as §2

[5] = test system: Mad1CTD R617E/K619D mutant; assay: SEC-MALS, Cdc20N with Mad1CTD R617E/K619D; type: binding, human; conditions: 1:1.2 ratio Mad1CTD dimer to Cdc20N
Method: as §2

[6] = test system: pMad1CTD homodimer; assay: AUC-SE (sedimentation equilibrium) of pMad1CTD and Cdc20N; type: binding, human; conditions: for calculated mass of major species (Cdc20N:pMad1CTD): 20 °C, expected 35.7 kDa
Method: Sedimentation equilibrium experiments were carried out in a buffer of 20 mM HEPES pH 7.5, 100 mM NaCl and 1 mM TCEP. Samples were loaded into 12 mm six-sector cells, placed in an An-50Ti rotor and centrifugated at 10,200, 12,200 and 21,000 rpm at 20 °C until equilibrium had been reached using an Optima XL-I analytical ultracentrifuge (Beckman). The data were analysed in SEDPHAT 15.2b[68]. The partial-specific volumes (v-bar) were calculated using Sednterp[69]. The density and viscosity of the buffer were determined with a DMA 4500 M density metre (Anton Parr) and an AMVn viscometer (Anton Paar). Data were plotted with the program GUSSI[70].

[7] = molecular target: T1, Mad1CTD (unphosphorylated); assay: 1H,15N HSQC / CON NMR titration with unphosphorylated Mad1CTD; type: binding; conditions: residues 616-660 of Mad1CTD in HSQC; N-terminal half of Cdc20N in CON
Method: (§3) Uniformly-labelled proteins were expressed in M9 minimal media (6 g/L Na2HPO4, 3 g/L KH2PO4, 0.5 g/L NaCl) supplemented with 1.7 g/L yeast nitrogen base without NH4Cl and amino acids (Sigma Y1251). 1 g/L ^15NH4Cl and 4 g/L unlabelled glucose were supplemented for ^15N labelling. For ^13C/ ^15N double-labelled samples, unlabelled glucose was replaced with 3 g/L ^13C-glucose. Prior to all NMR experiments, proteins were dialysed into 20 mM HEPES, pH 7.0, 100 mM NaCl and 1 mM TCEP.
The following protein concentrations were used in NMR studies: ^1H,^15N HSQC of Mad1^CTD were collected with a 100 µM sample, whereas a 50 µM sample was used for titrations with Cdc20^N and Cdc20^α1. […] To follow the O-to-C conversion of Mad2, the samples were prepared on ice and monitored using BEST ^1H,^15N-TROSY HSQC. […]
(§4) For binding studies, the relative peak intensities were normalised to the C-terminal residue Ala718 of Mad1^CTD or Gly73 of Cdc20^N and expressed as PIbound/PIfree, with PIfree and PIbound being the peak heights of the free and bound forms, respectively. Weighted chemical shift perturbations were calculated using the equation[63]: Δδ = [(ΔδHNWHN)^2 + (ΔδNWN)^2)^2]^1/2 where ΔδHN and ΔδN are the chemical shift perturbations in ^1H and ^15N dimensions respectively. The weight factors were determined from the average variances of chemical shifts in the BMRB database, where WHN = 1 and WN = 0.16.

[8] = test system: pMad1CTD; assay: 1H,15N HSQC / CON NMR titration with pMad1CTD; type: binding, human; conditions: pMad1CTD
Method: as §3
The following protein concentrations were used in NMR studies: ^1H,^15N HSQC of Mad1^CTD were collected with a 100 µM sample, whereas a 50 µM sample was used for titrations with Cdc20^N and Cdc20^α1. Cdc20^Box1 peptide was added at mM concentrations to minimise dilution during titration. […] Mad1^CTD was concentrated to 3 mM for titrations into Cdc20^N. ^1H,^15N HSQC of Mad2 were collected at 100 µM. All Mad2 NMR samples contain an R133A mutation to prevent Mad2 dimerisation. The C-Mad2 sample additionally contains an L13A mutation which favours the C-Mad2 state. Cdc20^MIM-bound C-Mad2 sample was prepared by adding a 1:2 excess of Cdc20^MIM peptide to an O-Mad2 sample with R133A mutation. To follow the O-to-C conversion of Mad2, the samples were prepared on ice and monitored using BEST ^1H,^15N-TROSY HSQC. The spectra were acquired with 16 scans and a recycle delay of 400 msec, giving an experimental time of 12 min per spectrum.
Mad1^CTD and Mad2 experiments were performed using an in-house 800 MHz Avance III spectrometer and Cdc20^N experiments were performed using an in-house 700 MHz Avance II + spectrometer, both equipped with triple resonance TCI CryoProbes. To retrieve signals that suffer from exchange broadening, we also utilised the Bruker 950 MHz Avance III spectrometer located at MRC Biomedical NMR Centre (Francis Crick Institute). Mad1^CTD and Mad2 spectra were collected at 298 K. Cdc20^N spectra were collected at 278 K to minimise exchange broadening for the largely disordered Cdc20^N.
as §4

[9] = Aggregation or non-specific binding at high concentration in the fluorescence anisotropy assay; type: physicochemical; conditions: further titration of Cdc20N to saturation; total fluorescence intensity
Method: as §1

B1: Cdc20^N: N-terminal truncation of human Cdc20 (residues 1–73) (protein)
chain: MAQFAFESDLHSLLQLDAPIPNAPPARWQRKAKEAAGPAPSPMRAANRSHSAGRTPGRTPGKSSSKVQTTPSK
modifications: left off: His6, N-terminal, cleaved | MBP, N-terminal, cleaved
In the case of B1, the “change in fluorescence anisotropy on Cdc20N titration (competition test)” value [1] is reported as “increased the fluorescence anisotropy”, the “change in fluorescence anisotropy on Cdc20N titration (competition test)” value [2] is reported as “increased the fluorescence anisotropy” and the “binding by SEC-MALS” value [3] is reported as “did not bind; also recorded: no binding”. The “binding by SEC-MALS” value ([4]; 1:1.2 ratio Mad1CTD dimer to Cdc20N) was “formed a stable complex”, the “observed mass of pMad1CTD:Cdc20N complex” value ([4]; SEC-MALS, expected 36 kDa for pMad1CTD dimer with one Cdc20N) was 38 kDa and the “binding by SEC-MALS” value [5] was “did not bind”. The “calculated mass of major species (Cdc20N:pMad1CTD)” value ([6]; 20 µM Mad1CTD + 40 µM Cdc20N) was 32.6 kDa, the “calculated mass of major species (Cdc20N:pMad1CTD)” value ([6]; 20 µM Mad1CTD + 80 µM Cdc20N) was 35.9 kDa and the “stoichiometry on pMad1CTD homodimer” value ([6]; even with four-fold molar excess of Cdc20N) was “only a single copy of Cdc20^N bound”. For the same molecule, the “NMR signal attenuation / line broadening” value [7] was “Significant signal attenuation; also recorded: substantial signal attenuation”, the “NMR signal attenuation / line broadening” value [8] was “more pronounced and extensive; also recorded: More significant signal attenuation” and the “aggregation or non-specific binding to the plate” value [9] was “large increases in the total fluorescence intensity indicating aggregation or non-specific binding to the plate”.
